{
  "source": "paper PMC7610691",
  "about": "(Nature structural & molecular biology, 2020)",
  "binders": {"B1": {"name": "Brn1 (S. cerevisiae condensin kleisin subunit) (natural protein)", "chain": "MTTQLRYENNDDDERVEYNLFTNRSTMMANFEEWIKMATDNKINSRNSWNFALIDYFYDLDVLKDGENNINFQKASATLDGCIKIYSSRVDSVTTETGKLLSGLAQRKTNGASNGDDSNGGNGEGLGGDSDEANIEIDPLTGMPISNDPDVNNTRRRVYNRVLETTLVEFETIKMKELDQELIIDPLFKKALVDFDEGGAKSLLLNTLNIDNTARVIFDASIKDTQNVGQGKLQRKEEELIERDSLVDDENEPSQSLISTRNDSTVNDSVISAPSMEDEILSLGMDFIKFDQIAVCEISGSIEQLRNVVEDINQAKDFIENVNNRFDNFLTEEELQAAVPDNAEDDSDGFDMGMQQELCYPDENHDNTSHDEQDDDNVNSTTGSIFEKDLMAYFDENLNRNWRGREHWKVRNFKKANLVNKESDLLEETRTTIGDTTDKNTTDDKSMDTKKKHKQKKVLEIDFFKTDDSFEDKVFASKGRTKIDMPIKNRKNDTHYLLPDDFHFSTDRITRLFIKPGQKMSLFSHRKHTRGDVSSGLFEKSTVSANHSNNDIPTIADEHFWADNYERKEQEEKEKEQSKEVGDVVGGALDNPFEDDMDGVDFNQAFEGTDDNEEASVKLDLQDDEDHKFPIRENKVTYSRVSKKVDVRRLKKNVWRSINNLIQEHDSRKNREQSSNDSETHTEDESTKELKFSDIIQGISKMYSDDTLKDISTSFCFICLLHLANEHGLQITHTENYNDLIVNYEDLATTQAAS"}},
  "key": {"[1]": {"target": "T1, Smc2 (S. cerevisiae condensin subunit) (S. cerevisiae, UniProt P38989 1-1170)", "T1 sequence": "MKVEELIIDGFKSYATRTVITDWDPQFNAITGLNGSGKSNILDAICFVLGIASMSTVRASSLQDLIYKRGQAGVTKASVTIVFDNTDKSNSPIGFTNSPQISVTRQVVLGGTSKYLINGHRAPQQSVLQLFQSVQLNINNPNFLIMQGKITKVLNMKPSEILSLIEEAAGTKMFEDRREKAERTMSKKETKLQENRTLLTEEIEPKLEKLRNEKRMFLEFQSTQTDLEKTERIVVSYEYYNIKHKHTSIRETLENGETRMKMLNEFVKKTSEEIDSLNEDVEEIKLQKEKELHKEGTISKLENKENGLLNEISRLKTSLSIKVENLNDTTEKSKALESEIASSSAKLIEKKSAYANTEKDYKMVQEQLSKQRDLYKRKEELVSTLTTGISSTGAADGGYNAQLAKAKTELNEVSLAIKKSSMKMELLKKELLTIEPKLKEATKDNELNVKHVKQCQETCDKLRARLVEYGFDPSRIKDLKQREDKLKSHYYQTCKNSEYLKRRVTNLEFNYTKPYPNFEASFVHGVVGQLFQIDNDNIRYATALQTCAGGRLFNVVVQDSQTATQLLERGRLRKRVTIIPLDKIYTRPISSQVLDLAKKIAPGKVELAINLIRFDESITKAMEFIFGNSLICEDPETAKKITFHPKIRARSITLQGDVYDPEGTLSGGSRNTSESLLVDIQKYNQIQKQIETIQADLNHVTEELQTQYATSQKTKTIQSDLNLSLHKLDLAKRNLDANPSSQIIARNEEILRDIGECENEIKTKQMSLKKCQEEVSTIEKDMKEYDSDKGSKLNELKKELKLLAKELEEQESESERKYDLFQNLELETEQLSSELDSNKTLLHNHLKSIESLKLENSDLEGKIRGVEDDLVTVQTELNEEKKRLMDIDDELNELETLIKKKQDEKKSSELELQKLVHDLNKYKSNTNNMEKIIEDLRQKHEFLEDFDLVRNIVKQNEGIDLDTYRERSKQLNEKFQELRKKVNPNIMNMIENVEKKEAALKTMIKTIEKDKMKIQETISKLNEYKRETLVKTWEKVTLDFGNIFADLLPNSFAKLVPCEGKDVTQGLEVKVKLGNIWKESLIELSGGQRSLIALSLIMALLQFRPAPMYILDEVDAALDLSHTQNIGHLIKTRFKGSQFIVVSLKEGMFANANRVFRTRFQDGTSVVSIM", "experiment": "cryo-EM structure"}, "[2]": {"target": "T2, Ycs4 (S. cerevisiae condensin HEAT-repeat subunit) (S. cerevisiae, UniProt Q06156 1-1176)", "T2 sequence": "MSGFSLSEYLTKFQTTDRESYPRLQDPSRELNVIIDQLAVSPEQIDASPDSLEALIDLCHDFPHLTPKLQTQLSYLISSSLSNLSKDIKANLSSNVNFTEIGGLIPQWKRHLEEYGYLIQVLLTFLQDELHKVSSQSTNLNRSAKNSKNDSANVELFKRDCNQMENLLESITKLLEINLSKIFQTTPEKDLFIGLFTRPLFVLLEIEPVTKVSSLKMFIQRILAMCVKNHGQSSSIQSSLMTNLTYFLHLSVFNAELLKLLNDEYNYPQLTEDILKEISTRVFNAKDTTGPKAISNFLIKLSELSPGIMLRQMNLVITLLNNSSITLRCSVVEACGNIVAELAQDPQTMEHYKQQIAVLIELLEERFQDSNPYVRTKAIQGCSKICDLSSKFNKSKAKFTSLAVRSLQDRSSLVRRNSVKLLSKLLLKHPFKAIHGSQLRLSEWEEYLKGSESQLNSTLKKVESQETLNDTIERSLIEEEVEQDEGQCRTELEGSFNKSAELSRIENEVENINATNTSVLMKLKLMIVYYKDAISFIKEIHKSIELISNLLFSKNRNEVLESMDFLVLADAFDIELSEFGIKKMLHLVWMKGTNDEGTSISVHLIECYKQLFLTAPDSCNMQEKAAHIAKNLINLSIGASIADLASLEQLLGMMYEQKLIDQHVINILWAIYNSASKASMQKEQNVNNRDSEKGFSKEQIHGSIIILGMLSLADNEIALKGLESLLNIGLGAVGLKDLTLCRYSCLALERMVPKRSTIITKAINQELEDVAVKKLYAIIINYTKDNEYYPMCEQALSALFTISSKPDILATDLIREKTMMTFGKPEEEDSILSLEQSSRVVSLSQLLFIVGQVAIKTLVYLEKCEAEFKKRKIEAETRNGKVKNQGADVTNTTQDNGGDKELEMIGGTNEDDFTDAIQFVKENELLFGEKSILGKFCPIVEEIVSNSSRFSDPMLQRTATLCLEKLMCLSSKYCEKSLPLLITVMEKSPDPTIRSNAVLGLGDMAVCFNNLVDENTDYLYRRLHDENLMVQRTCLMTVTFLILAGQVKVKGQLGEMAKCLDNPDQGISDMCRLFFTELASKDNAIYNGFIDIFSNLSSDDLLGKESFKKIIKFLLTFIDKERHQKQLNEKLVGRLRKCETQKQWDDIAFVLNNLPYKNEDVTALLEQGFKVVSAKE", "experiment": "cryo-EM structure"}},
  "data": [
    {"binder": "B1", "values": [
      {"measurement": "binding result", "setting": "[1]", "result": "binds"},
      {"measurement": "binding result", "setting": "[2]", "result": "binds"}
    ]}
  ]
}
